In US20230093211A1:

Experiments:
Test in all cases: SPR (Biacore T200), p75NTR-Fc captured on Protein A, neurotrophin injected
BDNF = target: T1, BDNF
T1 sequence (P23560 19-247, species assumed, looked up): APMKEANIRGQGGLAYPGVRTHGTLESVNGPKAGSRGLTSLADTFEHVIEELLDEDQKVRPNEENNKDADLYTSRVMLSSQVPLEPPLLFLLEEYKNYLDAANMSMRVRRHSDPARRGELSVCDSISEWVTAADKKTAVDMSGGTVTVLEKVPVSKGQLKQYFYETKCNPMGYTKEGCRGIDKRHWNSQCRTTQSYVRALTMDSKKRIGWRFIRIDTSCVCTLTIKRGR

NT-4 = target: T2, NT-4
T2 sequence (P34130 81-210, species assumed, looked up): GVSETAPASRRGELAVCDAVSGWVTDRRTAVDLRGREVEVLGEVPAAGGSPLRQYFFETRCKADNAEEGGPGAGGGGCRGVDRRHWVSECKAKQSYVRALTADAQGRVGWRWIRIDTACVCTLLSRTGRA

NT-3 = target: NT-3
NGF = target: NGF
Chain of NGF (P01138 122-241): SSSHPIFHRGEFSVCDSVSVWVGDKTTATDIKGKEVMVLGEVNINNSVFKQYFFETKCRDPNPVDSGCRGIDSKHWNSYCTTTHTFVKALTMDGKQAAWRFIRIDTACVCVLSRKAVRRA

Chain of p75NTR-Fc (Fc fusion) (chain): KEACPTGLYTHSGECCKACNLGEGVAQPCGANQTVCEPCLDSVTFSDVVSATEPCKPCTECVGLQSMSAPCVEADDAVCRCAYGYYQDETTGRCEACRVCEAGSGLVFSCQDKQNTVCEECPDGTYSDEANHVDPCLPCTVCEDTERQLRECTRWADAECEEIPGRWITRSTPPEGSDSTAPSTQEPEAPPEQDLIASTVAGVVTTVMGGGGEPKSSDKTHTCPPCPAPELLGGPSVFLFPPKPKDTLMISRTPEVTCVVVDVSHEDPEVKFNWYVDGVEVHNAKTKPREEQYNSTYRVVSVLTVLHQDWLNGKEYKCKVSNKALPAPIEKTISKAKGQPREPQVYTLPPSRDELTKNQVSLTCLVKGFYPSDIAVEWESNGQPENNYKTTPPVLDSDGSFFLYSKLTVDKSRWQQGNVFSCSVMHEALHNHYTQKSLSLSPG

- Kd (BDNF): 0.0418 nM
- Kd (NT-4): 0.181 nM
- Kd (NT-3): 0.0142 nM
- Kd (NGF): 0.554 nM
Substance: p75NTR-Fc (Fc fusion)
